Values joined by “and” are separate entries in the source; they are usually repeats but may differ in a detail not shown here. Equal values may be shown once.

Here are results for three variants from FireProtDB (doi:10.1074/jbc.m111.277210).

First the molecules themselves.
B1: S247A, Q72SM7 (parent)
chain: MKKLSILAISVALFASITACGAFGGLPSLKSSFVLSEDTIPGTNETVKTLLPYGSVINYYGYVKPGQAPDGLVDGNKKAYYLYVWIPAVIAEMGVRMISPTGEIGEPGDGDLVSDAFKAATPEEKSMPHWFDTWIRVERMSAIMPDQIAKAAKAKPVQKLDDDDDGDDTYKEERHNKYNSLTRIKIPNPPKSFDDLKNIDTKKLLVRGLYRISFTTYKPGEVKGSFVASVGLLFPPGIPGVSPLIHSNPEELQKQAIAAEESLKKAASDATK

In this series the parent is B1. Conditions: Leptospira interrogans serogroup Icterohaemorrhagiae serovar copenhageni (strain Fiocruz L1-130); pH 8; Thermal; CD; Tris-HCl; KCl; structure 3FRL; whole UniProt chain shown.
As for S247A, the “change of melting temperature, mutant - wild type (higher = more stable)” value is 0 °C and -1 °C.

With Q67A, the “change of melting temperature, mutant - wild type (higher = more stable)” value was determined as 0 °C.

As to D163A D164A D165A G166A D167A D168A, the Tm is 51 °C and 52 °C.
